# Changes are numbered by the printed parent chain. Numbers in names are those of the source.
# B1: L2P1E6: FABP probe, substitutions M18L A73L vs SEQ ID NO: 2 (protein, listed as Rattus norvegicus)
# chain: AFDGTWKVDRNENYEKFLEKMGINVVKRKLGAHDNLKLTITQEGNKFTVKESSNFRNIDVVFELGVDFAYSLLDGTELTGTWTMEGNKLVGKFKRVDNGKELIAVREISGNELIQTYTYEGVEAKRIFKKE
# modifications: PEPTIDE (1)...(131) wild-type rat intestinal fatty acid binding protein
# B2: L2P8F11: FABP probe, substitution A73I vs SEQ ID NO: 2 (protein, listed as Rattus norvegicus)
# chain: B1 chain with L18M, L73I
# modifications: PEPTIDE (1)...(131) wild-type rat intestinal fatty acid binding protein
# B3: L2P18H12: FABP probe, substitutions M18I G31V A73G vs SEQ ID NO: 2 (protein, listed as Rattus norvegicus)
# chain: B1 chain with L18I, G31V, L73G
# modifications: PEPTIDE (1)...(131) wild-type rat intestinal fatty acid binding protein
# B4: L2P21G3: FABP probe, substitutions M18I G31M F55M vs SEQ ID NO: 2 (protein, listed as Rattus norvegicus)
# chain: B1 chain with L18I, G31M, F55M, L73A
# modifications: PEPTIDE (1)...(131) wild-type rat intestinal fatty acid binding protein
# B5: L2P22E6: FABP probe, substitutions M18V G31A F55I A73W vs SEQ ID NO: 2 (protein, listed as Rattus norvegicus)
# chain: B1 chain with L18V, G31A, F55I, L73W
# modifications: PEPTIDE (1)...(131) wild-type rat intestinal fatty acid binding protein
# B6: L2P8A5: FABP probe, substitutions M18V G31A F55W A73W vs SEQ ID NO: 2 (protein, listed as Rattus norvegicus)
# chain: B1 chain with L18V, G31A, F55W, L73W
# modifications: PEPTIDE (1)...(131) wild-type rat intestinal fatty acid binding protein
# B7: L2P22H10: FABP probe, substitutions M18I F55G A73M vs SEQ ID NO: 2 (protein, listed as Rattus norvegicus)
# chain: B1 chain with L18I, F55G, L73M
# modifications: PEPTIDE (1)...(131) wild-type rat intestinal fatty acid binding protein
# B8: L2P12G9: FABP probe, substitutions M18L A73V vs SEQ ID NO: 2 (protein, listed as Rattus norvegicus)
# chain: B1 chain with L73V
# modifications: PEPTIDE (1)...(131) wild-type rat intestinal fatty acid binding protein
# B9: L2P23A4: FABP probe, substitutions M18V G31I F55L A73V vs SEQ ID NO: 2 (protein, listed as Rattus norvegicus)
# chain: B1 chain with L18V, G31I, F55L, L73V
# modifications: PEPTIDE (1)...(131) wild-type rat intestinal fatty acid binding protein
# B10: L2P21C1: FABP probe, substitutions M18I G31Y A73V vs SEQ ID NO: 2 (protein, listed as Rattus norvegicus)
# chain: B1 chain with L18I, G31Y, L73V
# modifications: PEPTIDE (1)...(131) wild-type rat intestinal fatty acid binding protein
# B11: L2P16A3: FABP probe, substitutions M18I G31L A73G vs SEQ ID NO: 2 (protein, listed as Rattus norvegicus)
# chain: B1 chain with L18I, G31L, L73G
# modifications: PEPTIDE (1)...(131) wild-type rat intestinal fatty acid binding protein
# B12: L2P23G7: FABP probe, substitutions M18V G31F F55L vs SEQ ID NO: 2 (protein, listed as Rattus norvegicus)
# chain: B1 chain with L18V, G31F, F55L, L73A
# modifications: PEPTIDE (1)...(131) wild-type rat intestinal fatty acid binding protein
# B13: L2P7F4: FABP probe, substitutions M18V G31V A73I vs SEQ ID NO: 2 (protein, listed as Rattus norvegicus)
# chain: B1 chain with L18V, G31V, L73I
# modifications: PEPTIDE (1)...(131) wild-type rat intestinal fatty acid binding protein
# B14: L2P8B8: FABP probe, substitution A73F vs SEQ ID NO: 2 (protein, listed as Rattus norvegicus)
# chain: B1 chain with L18M, L73F
# modifications: PEPTIDE (1)...(131) wild-type rat intestinal fatty acid binding protein
# B15: L2P9E12: FABP probe, substitutions M18L F55L A73I vs SEQ ID NO: 2 (protein, listed as Rattus norvegicus)
# chain: B1 chain with F55L, L73I
# modifications: PEPTIDE (1)...(131) wild-type rat intestinal fatty acid binding protein
# Test: Probe fluorescence ratio response to arachidonic acid relative to ADIFAB2
# Type: binding
# Details: Table 5; Arachidonic acid
# Method in brief: (§1)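 Each fatty acid's response was expressed relative to ADIFAB2, the rI-FABP-L72A probe, as ΔR/ΔRreference. ΔR is the change in the background-corrected two-wavelength intensity ratio R=Fλ1/Fλ2 from its analyte-free baseline R0. Emission was read near about 420-480 nm for unbound and about 495-580 nm for FFA-bound probe.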
row,Molecule,ΔR/DRAΔ2 AA
1,B1,0.4
2,B2,0.4
3,B3,1.3
4,B4,1.0
5,B5,1.0
6,B6,1.1
7,B7,0.9
8,B8,0.5
9,B9,2.8
10,B10,2.8
11,B11,1.0
12,B12,0.9
13,B13,0.8
14,B14,1.1
15,B15,0.6

# Test: Probe fluorescence ratio response to palmitic acid relative to ADIFAB2
# Type: binding
# Details: Table 5
# Method in brief: as §1
row,Molecule,ΔR/DRAΔ2 PA
1,B1,0.0
2,B2,0.0
3,B3,1.6
4,B4,1.1
5,B5,1.3
6,B6,1.5
7,B7,1.1
8,B8,0.0
9,B9,1.9
10,B10,2.0
11,B11,1.1
12,B12,1.0
13,B13,1.3
14,B14,1.1
15,B15,1.1

# Test: Probe fluorescence ratio response to oleic acid relative to ADIFAB2
# Type: binding
# Details: Table 5
# Method in brief: as §1
row,Molecule,ΔR/DRAΔ2 OA
1,B1,0.1
2,B2,0.0
3,B3,1.0
4,B4,0.6
5,B5,0.8
6,B6,0.9
7,B7,0.6
8,B8,0.0
9,B9,2.3
10,B10,2.7
11,B11,0.6
12,B12,0.6
13,B13,0.6
14,B14,0.6
15,B15,0.6

# Test: Probe fluorescence ratio response to linoleic acid relative to ADIFAB2
# Type: binding
# Details: Table 5
# Method in brief: as §1
row,Molecule,ΔR/DRAΔ2 LA
1,B1,0.1
2,B2,0.0
3,B3,1.7
4,B4,1.1
5,B5,1.3
6,B6,1.6
7,B7,1.1
8,B8,−0.1
9,B9,3.1
10,B10,3.4
11,B11,1.1
12,B12,1.0
13,B13,1.1
14,B14,1.2
15,B15,0.7

# Test: Probe fluorescence ratio response to stearic acid relative to ADIFAB2
# Type: binding
# Details: Table 5
# Method in brief: as §1
row,Molecule,ΔR/DRAΔ2 SA
1,B1,0.2
2,B2,0.3
3,B3,0.5
4,B4,0.3
5,B5,0.4
6,B6,0.4
7,B7,0.4
8,B8,0.4
9,B9,1.2
10,B10,1.6
11,B11,0.3
12,B12,0.4
13,B13,0.3
14,B14,0.4
15,B15,0.4

# Test: Probe fluorescence ratio response to palmitoleic acid relative to ADIFAB2
# Type: binding
# Details: Table 5
# Method in brief: as §1
row,Molecule,ΔR/DRAΔ2 POA
1,B1,0.1
2,B2,0.1
3,B3,2.1
4,B4,1.4
5,B5,1.6
6,B6,2.0
7,B7,1.2
8,B8,0.0
9,B9,2.8
10,B10,2.9
11,B11,1.4
12,B12,1.4
13,B13,1.3
14,B14,2.4
15,B15,0.8

# Test: Probe fluorescence ratio response to linolenic acid relative to ADIFAB2
# Type: binding
# Details: Table 5
# Method in brief: as §1
row,Molecule,ΔR/DRAΔ2 LNA
1,B1,0.1
2,B2,0.1
3,B3,1.9
4,B4,1.4
5,B5,1.6
6,B6,1.9
7,B7,1.3
8,B8,0.0
9,B9,2.6
10,B10,3.1
11,B11,1.5
12,B12,1.2
13,B13,1.5
14,B14,1.8
15,B15,0.9

# From patent publication US20060257938A1, “Method of screening for drugs that block ligand binding to a lipid binding protein” (priority 2005, published 2006)
